Laboratory results as given in patent US20160193329A1.

Target: Toll-like Receptor 5 (human) (UniProt O60602)
Test: cell-based or functional assay

B1: STF2.HA1 (SI) (protein)
chain: AQVINTNSLSLLTQNNLNKSQSALGTAIERLSSGLRINSAKDDAAGQAIANRFTANIKGLTQASRNANDGISIAQTTEGALNEINNNLQRVRELAVQSANSTNSQSDLDSIQAEITQRLNEIDRVSGQTQFNGVKVLAQDNTLTIQVGANDGETIDIDLKQINSQTLGLDSLNVQKAYDVKDTAVTTKAYANNGTTLDVSGLDDAAIKAATGGTNGTASVTGGAVKFDADNNKYFVTIGGFTGADAAKNGDYEVNVATDGTVTLAAGATKTTMPAGATTKTEVQELKDTPAVVSADAKNALIAGGVDATDANGAELVKMSYTDKNGKTIEGGYALKAGDKYYAADYDEATGAIKAKTTSYTAADGTTKTAANQLGGVDGKTEVVTIDGKTYNASKAAGHDFKAQPELAEAAAKTTENPLQKIDAALAQVDALRSDLGAVQNRFNSAITNLGNTVNNLSEARSRIEDSDYATEVSNMSRAQILQQAGTSVLAQANQVPQNVLSLLAKGIAPLQLGNCSVAGWILGNPECELLISRESWSYIVEKPNPENGTCYPGHFADYEELREQLSSVSSFERFEIFPKESSWPNHTTTGVSASCSHNGESSFYKNLLWLTGKNGLYPNLSKSYANNKEKEVLVLWGVHHPPNIGDQRALYHKENAYVSVVSSHYSRKFTPEIAKRPKVRDQEGRINYYWTLLEPGDTIIFEANGNLIAPRYAFALSRGFGSGIINS
- IL-8, Mean Result (ng/nL), HEK 293 cells, lot 1 (reference), well 1: 635 ng/nL
- IL-8, Mean Result (ng/nL), HEK 293 cells, lot 1 (reference), well 2: 797
- IL-8, Mean Result (ng/nL), HEK 293 cells, lot 1 (reference), well 3: 1070
- IL-8, Mean Result (ng/nL), HEK 293 cells, lot 1 (reference), well 4: 1230
- IL-8, Mean Result (ng/nL), HEK 293 cells, lot 1 (reference), well 5: 1360
- IL-8, Mean Result (ng/nL), HEK 293 cells, lot 1 (reference), well 6: 1540
- IL-8, Mean Result (ng/nL), HEK 293 cells, lot 2, well 1: 1460 ng/nL
- IL-8, Mean Result (ng/nL), HEK 293 cells, lot 2, well 2: 1590
- IL-8, Mean Result (ng/nL), HEK 293 cells, lot 2, well 3: 1610
- IL-8, Mean Result (ng/nL), HEK 293 cells, lot 2, well 4: 1300
- IL-8, Mean Result (ng/nL), HEK 293 cells, lot 2, well 5: 1380
- IL-8, Mean Result (ng/nL), HEK 293 cells, lot 2, well 6: 1090
- IL-8, Mean of all wells, HEK 293 cells, lot 1 (reference): 1110
- IL-8, Mean of all wells, HEK 293 cells, lot 2: 1410
- T/C ratio (IL-8 of lot 2 against the reference lot 1 at about 278 ng/ml): 1.3
